Literature values as cited in publication PMC6535718 (Journal of the American Chemical Society, 2019).

Target: BfrB
Settings: read-out: Kd of Bfd binding to BfrB; complex in solution

B1: Bfd: bacterioferritin-associated ferredoxin, cognate partner of BfrB in P. aeruginosa (protein, UniProt Q9HY80 1-73, looked up)
Bacterioferritin-associated …: MYVCLCQGVTDNQIRDAIYEGCCSYREVREATGVGTQCGKCACLAKQVVRETLNDLQSAQPVPAFGTTAFVAA
**Q.** Which Kd does the source give for B1 here?
**A.** The Kd was roughly 3000 nM.
